Data from patent publication US20200171174A1 (Astellas, published 2020).
Substitutions are numbered along the chain they refer to.

B1: P10-2 Fab (Fab, V domains shown)
VH: QVQLVQSGAEVKKPGASVKVSCKASGYTFTNYGLSWVRQAPGQGLEWMGENHPGSGIIYHNEKFRGRVTLTADRSTSTAYMELSSLRSEDTAVYYCARSSGTRGFDYWGQGTLVTVSS
VL: DVVMTQTPLSLSVTPGQPASISCRSSQSIVHSNGNTYLEWYLQKPGQSPQLLIYRVSNRFSGVPDRFSGSGSGTDFTLKISRVEAEDVGVYYCFQGSHGPWTFGQGTKLEIKR
modifications: heavy chain N-terminal glutamine modified into pyroglutamic acid in a great majority of purified antibodies
notes: expressed in Expi293F cells, purified on KappaSelect; also called anti-human MUC1 antibody Fab fragment P10-2
B2: P10-1 Fab (Fab, V domains shown)
VH: B1 VH with D106A
VL: B1 VL
notes: expressed in Expi293F cells, purified on KappaSelect; also called anti-human MUC1 antibody Fab fragment P10-1

Target: T1, human cancer-specific MUC1 (human, UniProt P15941 24-1255)
T1 construct: whole, on cells; Endogenous MUC1 with cancer-specific incomplete O-glycosylation on cancer cells; also called Mucin 1; human MUC1
Experiment: Cell ELISA on formalin-fixed T-47D cells, HRP anti-human Ig kappa, luminescence
Experimental: Specifically, breast cancer cell line T-47D cells (purchasable from ATCC; HTB-133) expressing human cancer-specific MUC1 were inoculated at 0.75×10⁴ cells per well to a 96-well ELISA plate coated with collagen I, and cultured overnight. […] Then, a horseradish peroxidase (HRP)-labeled goat anti-human Igκ antibody (Southern Biotechnology Associates, Inc.) was reacted as a secondary antibody. ECL Prime Western Blotting Detection Reagent (GE Healthcare Japan Corp.) was added thereto for luminescence, and the degree of the luminescence was examined.

| Binder | binding activity relative to 1B2 Fab [times] |
| --- | --- |
| B1 | ≥ 10 |
| B2 | ≥ 10 |
